In publication PMC6072203:

Experiments:
[1] = target: H77 NS5A 38A (hepatitis C virus genotype 1a (H77 strain)); test: two-hybrid; Checkmate mammalian two-hybrid: GAL4/BD fusion (pBIND) and VP16/AD fusion (pACT) with the pGL4.3[luc2P/Gal4UAS/Hygro] reporter co-transfected into FT3-7 (Huh-7) cells; lysed at 48 h; F-Luc/R-Luc ratio; for NS5A both fusions carry the same NS5A
[2] = target: YFP-fused JFH1 NS5A 148A of HJ3-5/NS5A^YFP (hepatitis C virus genotype 2a (JFH1 strain)); test: co-IP; GFP immunoprecipitation (anti-GFP magnetic beads, 1 h, 4 C) of NS5A^YFP from lysates (0.5% Triton X-100, 10 mM Tris-HCl pH 7.5, 150 mM NaCl) of cells electroporated with HJ3-5/NS5A^YFP RNA; core detected by western blot; ratio of co-IP core per IP NS5A^YFP
[3] = target: YFP-fused JFH1 NS5A 37A of HJ3-5/NS5A^YFP (hepatitis C virus genotype 2a (JFH1 strain)); test: as above
[4] = target: YFP-fused JFH1 NS5A 38A of HJ3-5/NS5A^YFP (hepatitis C virus genotype 2a (JFH1 strain)); test: as above
[5] = target: JFH1 NS5A 36A (hepatitis C virus genotype 2a (JFH1 strain)); test: two-hybrid; Checkmate mammalian two-hybrid: GAL4/BD fusion (pBIND) and VP16/AD fusion (pACT) with the pGL4.3[luc2P/Gal4UAS/Hygro] reporter co-transfected into FT3-7 (Huh-7) cells; lysed at 48 h; F-Luc/R-Luc ratio; for NS5A both fusions carry the same NS5A
[6] = target: H77 NS5A 36A/37A/38A (mutation group a); test: checkmate mammalian two-hybrid assay; settings: Huh-7 cells; GAL4/BD-fused and VP16/AD-fused NS5A both carry the mutations; parent: est. 100; read off a plot
[7] = target: H77 NS5A 36A/37A/38A/112A/148A (both mutation groups); test: checkmate mammalian two-hybrid assay; settings: Huh-7 cells; GAL4/BD-fused and VP16/AD-fused NS5A both carry the mutations; parent: est. 100; read off a plot
H77 NS5A 37A = test: mammalian two-hybrid assay; settings: Huh-7 cells; GAL4/BD-fused and VP16/AD-fused NS5A both carry the mutation; parent: est. 100; read off a plot
H77 NS5A 38A = test: mammalian two-hybrid assay; settings: Huh-7 cells; GAL4/BD-fused and VP16/AD-fused NS5A both carry the mutation; parent: est. 100; read off a plot
H77 NS5A 112A = H77 NS5A 112A (UniProt P27958); test: mammalian two-hybrid assay; settings: Huh-7 cells; GAL4/BD-fused and VP16/AD-fused NS5A both carry the mutation; parent: est. 100; read off a plot
[8] = target: H77 NS5A 112A/148A (mutation group b); test: checkmate mammalian two-hybrid assay; settings: Huh-7 cells; GAL4/BD-fused and VP16/AD-fused NS5A both carry the mutations; parent: est. 100; read off a plot
H77 NS5A 148A = test: mammalian two-hybrid assay; settings: Huh-7 cells; GAL4/BD-fused and VP16/AD-fused NS5A both carry the mutation; parent: est. 100; read off a plot
JFH1 NS5A 36A = test: checkmate mammalian two-hybrid assay; settings: Huh-7 cells; GAL4/BD-fused and VP16/AD-fused NS5A both carry the mutation; parent: est. 100; read off a plot
[9] = target: JFH1 NS5A 36A/37A/38A (mutation group a); test: checkmate mammalian two-hybrid assay; settings: Huh-7 cells; GAL4/BD-fused and VP16/AD-fused NS5A both carry the mutations; parent: est. 100; read off a plot
[10] = target: JFH1 NS5A 36A/37A/38A/112A/148A (both mutation groups combined); test: checkmate mammalian two-hybrid assay; settings: Huh-7 cells; GAL4/BD-fused and VP16/AD-fused NS5A both carry the mutations; parent: est. 100; read off a plot
JFH1 NS5A 37A = test: checkmate mammalian two-hybrid assay; settings: Huh-7 cells; GAL4/BD-fused and VP16/AD-fused NS5A both carry the mutation; parent: est. 100; read off a plot
JFH1 NS5A 38A = test: checkmate mammalian two-hybrid assay; settings: Huh-7 cells; GAL4/BD-fused and VP16/AD-fused NS5A both carry the mutation; parent: est. 100; read off a plot
JFH1 NS5A 112A = JFH1 NS5A 112A (UniProt Q99IB8); test: checkmate mammalian two-hybrid assay; settings: Huh-7 cells; GAL4/BD-fused and VP16/AD-fused NS5A both carry the mutation; parent: est. 100; read off a plot
[11] = target: JFH1 NS5A 112A/148A (mutation group b); test: checkmate mammalian two-hybrid assay; settings: Huh-7 cells; GAL4/BD-fused and VP16/AD-fused NS5A both carry the mutations; parent: est. 100; read off a plot

In the case of H77 NS5A 38A (natural protein), the percent above wt NS5A self-interaction (F-Luc/R-Luc) [1] is reported as 30 % above wt.

For “HCV core protein (H77 core of the chimera HJ3-5) (natural protein)”, the NS5A and core co-IP efficiency against wt (% lower than wt) [2] was 50, the NS5A and core co-IP efficiency against wt (% lower than wt) [3] was 50 and the NS5A and core co-IP efficiency against wt (% lower than wt) [4] was 50.

In the case of JFH1 NS5A 36A (natural protein), the percent of wt NS5A self-interaction (F-Luc/R-Luc) [5] is reported as 20 % of wt.

Work on “wild-type full-length NS5A of gt1a HCV H77 (from UniProt P27958) 36A; 37A; 38A” yielded a percent of parent [6] of 17 % wt.

For “wild-type full-length NS5A of gt1a HCV H77 (from UniProt P27958) 36A; 37A; 38A; 112A; 148A”, the percent of parent [7] was 3.3 % wt.

With “wild-type full-length NS5A of gt1a HCV H77 (from UniProt P27958) 37A” the percent of parent (H77 NS5A 37A) was 45 % wt.

Work on “wild-type full-length NS5A of gt1a HCV H77 (from UniProt P27958) 38A” yielded a percent of parent (H77 NS5A 38A) of 130 % wt.

For “wild-type full-length NS5A of gt1a HCV H77 (from UniProt P27958) 112A”, the percent of parent (H77 NS5A 112A) was 27 % wt.

With “wild-type full-length NS5A of gt1a HCV H77 (from UniProt P27958) 112A; 148A” the percent of parent [8] was 11 % wt.

Work on “wild-type full-length NS5A of gt1a HCV H77 (from UniProt P27958) 148A” yielded a percent of parent (H77 NS5A 148A) of 13 % wt.

For “wild-type full-length NS5A of gt2a HCV JFH1 (from UniProt Q99IB8) 36A”, the percent of parent (JFH1 NS5A 36A) was 22 % wt.

“wild-type full-length NS5A of gt2a HCV JFH1 (from UniProt Q99IB8) 36A; 37A; 38A” gave a percent of parent [9] of 11 % wt.

Substance “wild-type full-length NS5A of gt2a HCV JFH1 (from UniProt Q99IB8) 36A; 37A; 38A; 112A; 148A” has a percent of parent [10] of 2.5 % wt.

“wild-type full-length NS5A of gt2a HCV JFH1 (from UniProt Q99IB8) 37A” was tested, and the percent of parent (JFH1 NS5A 37A) was 78 % wt.

For “wild-type full-length NS5A of gt2a HCV JFH1 (from UniProt Q99IB8) 38A”, the percent of parent (JFH1 NS5A 38A) was 77 % wt.

“wild-type full-length NS5A of gt2a HCV JFH1 (from UniProt Q99IB8) 112A” was tested, and the percent of parent (JFH1 NS5A 112A) was 110 % wt.

For “wild-type full-length NS5A of gt2a HCV JFH1 (from UniProt Q99IB8) 112A; 148A”, the percent of parent [11] was 2.7 % wt.
